This note sets out measurements from patent US20150125424A1 (MICREOS B V, published 2015).

For experiment [1], the target named is outer membrane protein C (OmpC) of S. Typhimurium DT7155 (S. Typhimurium DT7155). Kind of experiment: control of competition in pull down assay; S. Tm. DT7155 wt cells pre-incubated with HGFP, then phage S16 added; value is remaining S16 adsorption.
The target of experiment [2] is T1, Phage S16 (whole phage particle) (Phage S16, UniProt M1EAS5 1-638; M1EBB2 1-249).
T1 construct: The whole virion stood in the assay; All other virion proteins are left out; also called bacteriophage S16; CBS130493
T1 sequence 1: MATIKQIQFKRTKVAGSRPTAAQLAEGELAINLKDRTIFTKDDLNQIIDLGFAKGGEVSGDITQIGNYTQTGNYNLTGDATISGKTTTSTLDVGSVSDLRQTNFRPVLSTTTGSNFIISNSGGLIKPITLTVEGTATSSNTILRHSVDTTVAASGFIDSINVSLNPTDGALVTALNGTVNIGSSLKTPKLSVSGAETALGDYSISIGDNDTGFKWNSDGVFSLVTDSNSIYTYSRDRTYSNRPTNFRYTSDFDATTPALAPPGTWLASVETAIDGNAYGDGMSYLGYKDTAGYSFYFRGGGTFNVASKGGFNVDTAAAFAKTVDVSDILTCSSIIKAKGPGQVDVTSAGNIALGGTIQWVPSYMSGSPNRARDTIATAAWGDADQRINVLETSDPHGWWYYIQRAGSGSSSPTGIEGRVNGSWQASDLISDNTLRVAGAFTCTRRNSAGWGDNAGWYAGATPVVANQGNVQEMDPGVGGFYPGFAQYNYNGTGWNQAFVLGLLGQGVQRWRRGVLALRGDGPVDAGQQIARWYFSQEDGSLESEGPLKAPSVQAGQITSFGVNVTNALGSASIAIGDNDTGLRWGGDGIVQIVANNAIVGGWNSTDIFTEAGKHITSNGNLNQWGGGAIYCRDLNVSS
T1 sequence 2: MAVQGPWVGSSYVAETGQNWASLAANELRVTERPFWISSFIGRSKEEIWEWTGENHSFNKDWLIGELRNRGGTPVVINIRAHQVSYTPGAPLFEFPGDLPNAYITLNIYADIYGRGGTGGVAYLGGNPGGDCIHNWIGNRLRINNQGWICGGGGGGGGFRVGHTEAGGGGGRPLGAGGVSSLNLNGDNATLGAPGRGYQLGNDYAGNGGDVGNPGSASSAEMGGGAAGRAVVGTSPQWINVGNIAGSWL
Kind of experiment: pull down assay (phage adsorption) on E. coli K-12 wt and E. coli K-12 ΔompC::ompC(K-12) cells.

Consider HGFP (6xHis-tagged GFP alone, control), for which the adsorption ratio of S16 after pre-incubation in experiment [1] was 93.8%.

B1: OmpC of E. coli K-12 (receptor)
chain: AEVYNKDGNKLDLYGKVDGLHYFSDNKDVDGDQTYMRLGFKGETQVTDQLTGYGQWEYQIQGNSAENENNSWTRVAFAGLKFQDVGSFDYGRNYGVVYDVTSWTDVLPEFGGDTYGSDNFMQQRGNGFATYRNTDFFGLVDGLNFAVQYQGKNGNPSGEGFTSGVTNNGRDALRQNGDGVGGSITYDYEGFGIGGAISSSKRTDAQNTAAYIGNGDRAETYTGGLKYDANNIYLAAQYTQTYNATRVGSLGWANKAQNFEAVAQYQFDFGLRPSLAYLQSKGKNLGRGYDDEDILKYVDVGATYYFNKNMSTYVDYKINLLDDNQFTRDAGINTDNIVALGLVYQF
notes: whole, on cells; Presented on E. coli K-12 wt cells, or expressed in trans from pBAD18 Amp^r in E. coli K-12 ΔompC; also called ompC(K-12)
In the case of B1, the binding result in experiment [2] is “no binding”.
